From PMC2818375

Target: M2 muscarinic receptor fused to CFP (M2R-CFP) (UniProt P08172)
Assay: FRET or BRET

Sequence of UniProt P08172 (P08172 whole entry, the tested form may be a part): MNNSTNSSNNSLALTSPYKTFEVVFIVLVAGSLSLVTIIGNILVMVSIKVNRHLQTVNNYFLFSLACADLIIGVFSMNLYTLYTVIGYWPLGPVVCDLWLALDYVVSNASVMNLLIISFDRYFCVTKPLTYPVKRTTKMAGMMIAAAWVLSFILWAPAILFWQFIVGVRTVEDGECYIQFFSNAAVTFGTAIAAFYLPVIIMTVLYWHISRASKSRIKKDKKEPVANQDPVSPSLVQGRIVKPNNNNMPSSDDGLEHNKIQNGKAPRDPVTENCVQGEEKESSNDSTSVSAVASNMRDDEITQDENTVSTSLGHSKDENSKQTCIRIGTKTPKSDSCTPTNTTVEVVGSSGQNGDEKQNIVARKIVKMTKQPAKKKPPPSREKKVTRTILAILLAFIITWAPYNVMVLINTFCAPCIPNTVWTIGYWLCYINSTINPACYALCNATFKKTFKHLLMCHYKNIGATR

- %FRET: 6 %FRET
Substance: GBR1R2-YFP chimera (N-terminal and transmembrane domains of GBR1, C-terminal domain of GBR2) (receptor)
